The record followed here is patent US20230052646A1 (JJP BIOLOGICS SP Z O O, published 2023).

For assay [1], the target named is T1, membrane-bound full-length cynomolgus monkey HVEM on transiently transfected HEK293F cells (cynomolgus monkey (Macaca fascicularis)).
T1 construct: also called cynomolgus HVEM
T1 chain: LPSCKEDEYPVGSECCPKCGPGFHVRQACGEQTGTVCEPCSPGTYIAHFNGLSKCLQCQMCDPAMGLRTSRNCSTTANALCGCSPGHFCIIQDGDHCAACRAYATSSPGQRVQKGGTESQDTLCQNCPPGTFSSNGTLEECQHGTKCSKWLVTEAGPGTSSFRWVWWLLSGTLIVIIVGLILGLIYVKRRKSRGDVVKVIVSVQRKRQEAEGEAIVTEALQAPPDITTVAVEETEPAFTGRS
Briefly: FACS, undiluted hybridoma supernatant. How it is done:
Generation of human ‘full-length’ HVEM-transfected HEK293F cells (clone no. 128) is described in Example 1a. […] After 72 hours, surface cynomolgus monkey HVEM expression on transfected cells was analysed by FACS analysis. To this end, stable human full-length HVEM-transfected HEK293F cells and transient cynomolgus monkey full-length HVEM-transfected HEK293F cells were put at 10×10⁶ cells/mL in ice-chilled phosphate-buffered saline containing 0.1% BSA (Sigma)/0.05% NaN₃ (PBS/BSA/NaN₃) supplemented with 50 μg/mL human IgGs (blocking of possible Fcγ receptors; Sigma) for 10 minutes at 4° C. Then, 10 μL/tube (i.e., 0.1×10⁶ cells) of these cells were incubated with 100 μL undiluted hybridoma supernatant/tube for 30 minutes at 4° C. Phycoerythrin (PE)-conjugated mouse anti-human HVEM antibody (clone eBioHVEM-122; eBioscience) at 1:20 was run as a positive control antibody. After extensive washing in PBS/BSA/NaN₃, cells were subsequently incubated with 1:200 diluted PE-conjugated goat anti-mouse IgG Fcγ-specific antibodies (Jackson ImmunoResearch) for 30 minutes at 4° C. After extensive washing in PBS/BSA/NaN₃, cells were fixed in 2% formaldehyde in PBS/BSA/NaN₃ for 30 minutes at 4° C. Binding of antibodies was measured using a flow cytometer (model FACSCalibur; BD Biosciences).
On the technique in general: In flow cytometry, cells or beads pass a laser one at a time.

The target in assay [2] is T2, membrane-bound full-length human HVEM on stable HVEM-transfected HEK293F cells (clone no. 128) (human, UniProt Q92956 39-283).
T2 construct: The same cDNA was also expressed on Sf9 insect cells; also called TNFRSF14; CD270
T2 sequence: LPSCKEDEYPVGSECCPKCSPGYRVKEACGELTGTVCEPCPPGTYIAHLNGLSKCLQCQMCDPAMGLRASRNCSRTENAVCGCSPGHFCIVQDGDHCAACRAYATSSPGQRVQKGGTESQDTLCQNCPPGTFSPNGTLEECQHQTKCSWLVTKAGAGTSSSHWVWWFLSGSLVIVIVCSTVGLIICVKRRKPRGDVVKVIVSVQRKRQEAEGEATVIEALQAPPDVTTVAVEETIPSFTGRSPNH
Briefly: FACS titration on HVEM-HEK293F, half-maximum binding. How it is done: In order to determine the relative binding affinity of purified BTLA/HVEM blocking chimeric mouse/human anti-human HVEM antibodies no. 36H12, 45H6, 48H6, 11H7, and 49G4 for human HVEM, FACS analysis was used.
To this end, stable human full-length HVEM-transfected HEK293F cells (clone no. 128; see Example 1(a) above) were put at 10×10⁶ cells/mL in ice-chilled PBS containing 0.1% BSA (Sigma)/0.05% NaN₃ (PBS/BSA/NaN₃) supplemented with 50 μg/mL human IgGs (blocking possible Fcγ receptors; Sigma) for 10 minutes at 4° C. Then, 10 μL/tube (i.e., 0.1×10⁶ cells) of these cells were incubated with or without 100 μL titrated (in PBS/BSA/NaN₃) purified BTLA/HVEM blocking chimeric mouse/human anti-human HVEM antibody/tube for 30 minutes at 4° C. After extensive washing in PBS/BSA/NaN₃, cells were subsequently incubated with 1:200 diluted PE-conjugated goat anti-human IgG Fcγ-specific antibodies (Jackson ImmunoResearch) for 30 minutes at 4° C. After extensive washing in PBS/BSA/NaN₃, cells were fixed in 4% formaldehyde in PBS/BSA/NaN₃ for 30 minutes at 4° C. Binding (geo-mean fluorescence intensity) of chimeric mouse/human anti-human HVEM antibodies no. 36H12, 45H6, 48H6, 11H7, and 49G4 on membrane human HVEM was measured using a flow cytometer (FACSCalibur; BD Biosciences). For comparison, purified BTLA/HVEM blocking mouse anti-human HVEM antibody counterparts no. 36H12, 45H6, 48H6, 11H7, and 49G4 were run in parallel, and their binding was monitored as described in Example 2 (a).

B1: mouse anti-human HVEM antibody no. 36H12 (antibody, mouse IgG1, V domains shown)
VH: EVQLQQSGAGLVKPGASVKLSCTASGFNIKDTYMHWVRQRPEQGLEWIGRIDPATANTKYDPKFQGKATLTTDTSSNTAYLQLSSLTSEDTAVYYCVTYGYDVSWFAYWGLGALVTVSA
VL: DVLMTQTPLSLPVSLGDQASISCRSSQSIVHSNGITYLEWYLQKPGQSPKLLIYKVSNRFSGVPDRFSGSGSGTDFTLKISRVEAEDLGVYYCFQGSHVPLTFGAGTKLELK
notes: mouse IgG1/kappa; also called 36H12 (mouse)
Turning to B1, the binding result in assay [1] was “no binding”. For the same molecule, it took 0.43 µg/mL to reach a half-maximal effect in assay [2] (EC50).
